Experimental data: paper doi:10.1101/847608 (bioRxiv, 2019)

Biological target: the molecule itself
Test: turbidity

B1: SGYDFEREGYS peptide (wild type peptide, NP 287-297) (peptide)
peptide: SGYDFEREGYS
binding result: binds
